In paper PMC8905165, “Reconstitution of an active human CENP-E motor” (Open Biology, 2022):

Key:
[1] = target: the molecule itself; assay: native gel or EMSA; native PAGE of purified CENP-E483-2mNeon; monomer to dimer
[2] = target: the molecule itself; assay: single-molecule photobleaching step counting and initial intensity analysis (TIRF); 0.5 nM fluorescently tagged motor adsorbed non-specifically to silanized coverslips, BRB80 with oxygen scavenger mix, 30°C; monomer to dimer

| Protein | stoichiometry N [1] | binding result [2] |
| --- | --- | --- |
| CENP-E483-2mNeon (domain or fragment, human, UniProt Q02224 1-483, looked up, human CENP-E, N-terminal truncation with the motor domain and the first predicted coiled-coil (334-401), ending at residue 483; the start at residue 1 is printed only for the ColabFold input (1-483); Codon-optimised synthetic gene in pFastBac1; A mixture of monomers and dimers in solution; also called truncated human CENP-E; minimal human CENP-E motor; source: Sf9 cells (baculovirus), purified …) MAEEGAVAVCVRVRPLNSREESLGETAQVYWKTDNNVIYQVDGSKSFNFDRVFHGNETTKNVYEEIAAPIIDSAIQGYNGTIFAYGQTASGKTYTMMGSEDHLGVIPRAIHDIFQKIKKFPDREFLLRVSYMEIYNETITDLLCGTQKMKPLIIREDVNRNVYVADLTEEVVYTSEMALKWITKGEKSRHYGETKMNQRSSRSHTIFRMILESREKGEPSNCEGSVKVSHLNLVDLAGSERAAQTGAAGVRLKEGCNINRSLFILGQVIKKLSDGQVGGFINYRDSKLTRILQNSLGGNAKTRIICTITPVSFDETLTALQFASTAKYMKNTPYVNEVSTDEALLKRYRKEIMDLKKQLEEVSLETRAQAMEKDQLAQLLEEKDLLQKVQNEKIENLTRMLVTSSSLTLQQELKAKRKRRVTWCLGKINKMKNSNYADQFNIPTNITTKTHKLSINLLREIDESVCSESDVFSNTLDTLSEIE | 2 |  |
| CENP-E754-2mNeon (domain or fragment, human, UniProt Q02224 1-754, looked up, human CENP-E, N-terminal truncation with the motor domain and five predicted coiled-coils of the native stalk, ending at residue 754; The methods call it a dimeric motor; the self-association row is of one chain with another; also called truncated CENP-E; source: Sf9 cells (baculovirus), purified (HisTrap, Superose 6); not shown: mNeonGreen (2 x tandem), C-terminal, kept) MAEEGAVAVCVRVRPLNSREESLGETAQVYWKTDNNVIYQVDGSKSFNFDRVFHGNETTKNVYEEIAAPIIDSAIQGYNGTIFAYGQTASGKTYTMMGSEDHLGVIPRAIHDIFQKIKKFPDREFLLRVSYMEIYNETITDLLCGTQKMKPLIIREDVNRNVYVADLTEEVVYTSEMALKWITKGEKSRHYGETKMNQRSSRSHTIFRMILESREKGEPSNCEGSVKVSHLNLVDLAGSERAAQTGAAGVRLKEGCNINRSLFILGQVIKKLSDGQVGGFINYRDSKLTRILQNSLGGNAKTRIICTITPVSFDETLTALQFASTAKYMKNTPYVNEVSTDEALLKRYRKEIMDLKKQLEEVSLETRAQAMEKDQLAQLLEEKDLLQKVQNEKIENLTRMLVTSSSLTLQQELKAKRKRRVTWCLGKINKMKNSNYADQFNIPTNITTKTHKLSINLLREIDESVCSESDVFSNTLDTLSEIEWNPATKLLNQENIESELNSLRADYDNLVLDYEQLRTEKEEMELKLKEKNDLDEFEALERKTKKDQEMQLIHEISNLKNLVKHAEVYNQDLENELSSKVELLREKEDQIKKLQEYIDSQKLENIKMDLSYSLESIEDPKQMKQTLFDAETVALDAKRESAFLRSENLELKEKMKELATTYKQMENDIQLYQSQLEAKKKMQVDLEKELQSAFNEITKLTSLIDGKVPKDLLCNLELEGKITDLQKELNKEVEENEALREEVILLSELKSLPS |  | binds |
